# Experiment: soluble on expression in E. coli; label from the status in PepcDB or PDB records
row,Sequence,soluble on expression in E. coli
1,MEAEKKKLSIPPKGIRAIIEAIRLGEIIKPSQYAKREAFKKHDVEEAWLNRVLTMIFYDIMKKQGLIDKVIKEIVGVTPLILDPWLRAALRVAVDIALFHDPSSQTIKNLRWKASDFISSRTHPYVGMYFWDLLDKIFEYKPNPKNELEELEWKYLAPSWLIERVKGILGDETEDFFRSVNKRHEWISIRVNTLKANVEEVIGELEEDGVEVVRSERVPTILKIKGPYNFDTSSAFNEGKIIVQEEASAVASIVLDPKPGETVVDLAAAPGGKTTHLAELMKNKGKIYAFDVDKMRMKRLKDFVKRMGIKIVKPLVKDARKAPEIIGEEVADKVLLDAPCTSSGTIGKNPELRWRLREDKINEMSQLQRELLESAARLVKPGGRLLYTTCSIFKEENEKNIRWFLNVHPEFKLVPLKSPYDPGFLEGTMRAWPHRHSTIGFFYALLEKSK,soluble
2,MSLKYVDEFREPEKAEALCREITKLSHQLEKPIKIMEVCGGHTHSIFKYGIEEILPQTIELIHGPGCPVCVMPKGRLDDAIAISQNHNVIFATFGDAMRVPGSKTSLLQARAQGADIRMVYSPLDSLQIAKDHPDREVVFFALGFETTAPSTGFTIVQAAAEEIHNFSMFSNHVLVIPALKALLDNPDLQLDGFVGPGHVSMVIGSDPYQFISQQYNKPIVVSGFEPLDILQSIWMLLQQIVENRCEVENQYNRIVQKSGNTVALQAINKVFAVRDSFDWRGLGDIPYSGLKIKPEYAQFDAELKFTIPNLKVADHKACKCGEILKGVLKPWECKVFGTACTPETPIGTCMVSSEGACAAYYKYGRLSTIAKRTITQKPKITQEPLPACGFSLDEGHHHHHH,not soluble
3,SLKTKTFKMQLQFLSEQNLEINNNNQLLNQEKITYLQKIEQLKCKLEYQERMIKDSEKIREESFASAKAALFDLGKDLSKQLIEIHKMENNTTRELAEKNIETASQKFNTELERLITMVGALNKDIEQSKGTVDLIKQSLLSPIGAGLLSEITLENILKSSGLRPNLDFIMQYSLTTSDSVKLRPDAIIFLPSGNLMVIDSKASKFLVDSQDNSVHLSKTMNYHLKTLTNKDYAENILTNLNKKTQNFNNVITLMFLPTEQAVEKVIAANPEFLQKAWGCNIFPVGPAGLMNMLSFAKFQITDNRRSENYKVIIEEVRKLLSSIGTIADYSKKIGYNLQNMVTNYDKFAASFNRNVMSRVKSIQKLGIDSGNKIIPATLERYQIVSAKSEIIEVDVENQHK,soluble
4,GQEVTMWGDSHGVAPNQVRRTLVKVALSESLPPGAKQIRIGFSLPKETEEKVTALYLLVSDSLAVRDLPDYKGRVSYDSFPISKEDRTTALSADSVAGRRFFYLAADIGPVASFSRSDTLTARVEEVAVDGRPLPLKELSPASRRLYRGY,not soluble
5,MGSDKIHHHHHHMTLKIEHLTGGYTGVPVIKDINLEIKPGEALGLIGLNGAGKSTTIKHILGLLRPQKGKIILNDVVLTQQPTKFKREVAYIPETPILYPELTLKEHLELTMLSYKLDEKKAWERAHELLKMFRLDDKLEWLPIHFSKGMRQKVMIVSAFLADTSLLVIDEPFTGLDPLAVANLIDLIKQAIANNKMVLMTTHVLADAQQAISNYAVLNNGTIEIIGNLQDIREHYGLKPDDPFDKLYLALNREDHGNA,not soluble
6,MAHHHHHHMGTLEAQTQGPGSMALNSAVILAGCGHMDGSEIREAVLVMLELDRHNVNFKCFAPNKNQKQVVDHKKKESVGEVRNILVESARIARGSVYDIEQIRVEEFDMLVIPGGYGVAKNFSNLFDEDKENDYILPEFKNAVREFYNAKKPIGAVCISPAVVVALLKDIAKVKVTIGEDSNGLIDKMGGVHVDCPTIKSVKDDVNRIFSCSAYMRNDSLYNVYLGIQDMISSMVNYLKSK,soluble
7,MSLSYRAHGLPVLENLLEQDFSASGPNQKWAGDITYLRTDEGWLYLAVVIDLWSRAVIGWSMSPRMTAQLACDALQMALWRRRRPESVIVHTDRGGQYCSGDYQALLKRHNLRGSMSAKGYCYDNACVESFFHSLKVECIHGERFSSREIMRATVFNYIECDYNRWRRHSACGGLSPEQFENHNLAEGHHHHHH,not soluble
8,MTIDKLKLNTINLRNTFSNRSKPPISIITSTNKPKYFRNTIKNYTRLNYRYKELILIFNIDNIDIDYYKSYAEKIPNVMVFQLNECYSLGYCLNFGVNQSKYNYIAKMDDDDYYGPNYLTDEINAFNYTDAKIIGKCKYFTYFEDTRDLSINNYSQSYDYTNFIAGGTFLIKKELFKTYKFRDVNMSEDAGFLDDCSSHGIKIYSIDPFNYVYMRHKSLNEHTWKIPTTALKKQYFHFYKTTNYIPIVKILEHHHHHH,not soluble
9,MQDELFETEKIPPKNTKNTKNAPKKSFEEHVHSLERAIDRLNDPNLSLKDGMDLYKTAMQELFLAQKLLENAYLEHEKLQTPDQKA,not soluble
10,MASLGEILEGRATDIYFVRTRRVAEKYGVGGKRVRMEVHAYSLPRGYEWAVYAGLEEALALLQGKPVTVYSLPEGTVFERKDPLMVVEGRFQDIILFETALLGLLRFSTSIATKAARVRLAAGRGKTVLFFGLRALHPAVQPAADRAALVGGLDGVSGVLSREYLGVEPRGTMPHALIIVFGSQVEAWRAFAETFKEETPVIALVDTFWDEREEALMAARELGEVLAGVRLDTPSSRRGRMRDIVEEVRWALDIHGYKHVKIFVSGGLDEERVAELRDVADGFGVGTTIAAAPNIDISMDVVEVHEDGEWRPRTKRGKLPGARSIVLCRGEKRIVRLGEEPEGCEPLTRKYLEEGRLAQSLPSLDEIRSYVLKQLENLGLQ,soluble
11,MNTFTACVERGENWWVAQLVEDPGVIVQARRLDQIQEEIRDALALFPKLTDSPETASVHLDLVGEIEQKAQATRDQLAAIRECEAHELANMSQHARRLQAAGVLRDSMQIASGSQAARS,not soluble
12,MGHHHHHHSHMKVAQAKLKEIGPDDMNMEEYKKWHEDYSLFRKVSVYLLTGLELYQKGKYQEALSYLVYAYQSNAALLMKGPRRGVKESVIALYRRKCLLELNAKAASLFETNDDHSVTEGINVMNELIIPCIHLIINNDISKDDLDAIEVMRNHWCSYLGQDIAENLQLCLGEFLPRLLDPSAEIIVLKEPPTIRPNSPYDLCSRFAAVMESIQGVSTVTVK,not soluble
13,MGSDKIHHHHHHMSELKLPKDDRSIEVYRLSGTPVAVEKRSAADFNRVAFAAAHVVADPFADNDPWLTPAIDWEATLRFRHRLWDLGLGVAEAMDTAQRGMGLAWPQAQELISRSLKEAASRKDALIACGVGTDHLDSGGYDLNQIIDSYLEQLDFVQGEGGRVILMASRALAAAARSPDDYLKAYARVLSRAEQKVVIHWLGEMFDPALKGYWGSGDHMAAMETCLAMIEENAEKIDGIKISLLSKDKEIVMRRRLPAGVRMYTGDDFNYAELIAGDEQGHSDALLGIFDAIAPAASKALASLKRGADNEFFDILEPTVALSRHIFKAPTRFYKTGVVFLAYLNGLQDHFTMVGGQESTRSTQHFTELFRLADKANVLAEPDLATHRMKAFLAVRGIG,not soluble
14,MGADLRYNMEITLEEAFAGKTAQIRVPTSITCDVCSGSGAKPGTQPKTCATCQGSGRVRAAQGFFSVERTCPTCHGRGQTISDPCGKCHGQGRVTEERSLSVNIPSGIEDGTRIRLQGEGEAGMRGGPAGDLYIFLSVRPHEFFQRDGADLYCTVPISMTTAALGGTFDVTTLDGTKSRVTVPEGTQPGKQFRLKGKGMPVLRSAQTGDLYIQIQIETPQKLSKRQRELLQEFEQLSSKENNPLEHHHHHH,soluble
15,MGSDKIHHHHHHEDEKSPVMELQKASAFEPFSQSDFTFNDENAAAEFPEIKWTAADYGVKAVVNYDVTLTNDANAKTVLLGETGTTSLKFTNGQMNTMMAKVGAYPGQTYNFTITLTSKAYDMTADPASNSITFKATLFDPNAVDWKFAYVAVGYPDWDYTNAYLLGDPDGDGVYQGYANFDADGVSYAIIDGSDLTKILAKDQTAAKKGFYGIKVDAEGKVEQTEPLVWGVVGDATSGGWDKDTQMDYDATTRLWTVTTSLLDKEFKFRSNNNWDSDNYGAVSGKESELEGELVAGPNNFKVLKASPYVITMNLTNAGKYSYSMVETTIELSSAEMALPGSYQGWDATKDDCYKVQSAARDFIYTGTFYFDADTKFKFWDAGVWIGMMGPISWDEAKNIGTFVLMPSDGDNIKIETAGYYRVGADMKKLTASLTKTGWEIIGDATPGGWDKGTVMNYDPATKLWSVDVTLVAGEMKFRWDGAWTVNLGGSLGALTQDGANMKVTAGAYTIVLNPDAKTATMTKK,not soluble
16,MLRLARKGLQTAVVRSYAKDVKFGAEGRQAMLVGVNLLADAVSVTMGPKGRNVIIEQSWGSPKITKDGVTVAKSIDLKDKYQNLGAKLIQDVANKANEEAGDGTTCATVLARAIAKEGFESIRQGGNAVEIRRGVMNAVEVVVAELKKISKKVTTPEEIAQVATISANGDTVVGNLISDAMKKVGTTGVITVKDGKTLNDELELIEGMKFDRGYISPYFITSAKGAKVEYEKALVLLSEKKISQVQDIVPALELANKLRRPLVIIAEDVDGEALTTLVLNRLKVGLQVVAIKAPGFGDNRKNTLKDMGIATGATIFGDDSNLIKIEDITANDLGEVDEVTITKDDTLLLRGRGDQTEIEKRIEHITDEIEQSTSDYEKEKLNERLAKLSKGVAVLKIGGGSEVEVGEKKDRVTDALCATRAAVEEGIVPGGGVALLRSLTALKNYKAANEDQQIGVNIVKKALTQPIATIVKNAGLEPSSIIDEVTGNSNTSYGYDALNGKFVDMFEAGIIDPTKVVRTALQDASGVASLLATTECVVTEIPKEEAVGGPAGGMGGMGGMGGMGGMGF,not soluble
17,MSLQQGINKPIFQQAKLFRYQLPFKIPIVFKGIKLTAREGVILQVQNDKGEFNFAEIAPLPGFSKETLQQATAQIIALLNTPPLNSQSDILLYPSVAFALDCILHNIPISELFKTAESIPLLQGDNHSVLKQYLQMNKPNSVKLKIGRQSVAKDITLFSALSALNNNLLIRCDANQSWTFAQADLFFANINTQLIDYIEEPTASLSDNINLAERYEVQLALDETLQQKQFQYQHHRCFKALILKPTLIGSFERLNYFIKTAKKFHLSVSISSSFESPLGLSQLAFMASQWSKEVDISCGLDTLKFFESAILNKNSDKKLDNKTPINQQVKHLECLWTSNEGHHHHHH,soluble
18,MGSDKIHHHHHHMKIEFDVVVVGAGPSGLSCAYVLAKNGLKVAVVEKGEYPGSKNVMGGVLYVHPLKEIMPDFLEKAANSKALERNVIEQNLWLLGNEGVIKIGHRNVEWKENPNAFTVLRANFDRWFAQEVEKAGALIIPKTKVEDFLRNEKGEIAGVVTSRPKGEIHSKAVVIAEGVNPILTMKAGLRKEDLKPHMVAVAVKEVISVPEDVVNRVFGVEGNDGATIELLGSWSEGMFGMGFLYANRSSVSLGCGVLLEDLRKKKIKPYQLLENLKNHPVISDMLGEYRNNTMEYLAHLIPEGGYYAMPKVYGDRVLVCGDAAMLVNSIHREGSNHAITSGRLAAETLLEAFEKGDFSEKILKNYYLRLKESFILKDLEKYKDLMPTMEKNHQFVEIYPDLANDALKRFLQVDGTPKWDVQKQIADMVLSRRSLIGISLDLLRFWRAVR,not soluble
19,YTEEFDPSKYGMADSYDEQGNYIFPEGFDPETNEWLEGFDEQRQAWEARYAESERRFQLHTVQIEKNRVAAAEAAAAGEATNYSSESAEAAPAAANTEAEGGSLASDEQLAALREKLAGN,not soluble
20,MGSDKIHHHHHHMQVPSGAADLPEQMGTKAKFWFDDSRRLFKEGRPGTGENWAEVIAAELAALLGLPHATYSLAEYEGRRGVVTESFVPSGARLILGNELIGFAARETVSRHTRGQAHTIGRLSSLLNRPQVALPSGWVSPTSFFNAADVMSGYLLLDALIANQDRHEENWGLINSHGAIYLAPTFDHASSLGRNETDQRRIQKLDANHPDHGVLGYARRAKVPIYDGMGPLQSGEAFFAFARSCPDKGAYWLNRLHELDPSSFLALLNRIPVGWITDPARRFAAELLKVNRDRLLDEK,not soluble

# From the DeepSol protein solubility set
